Where a chain is given by its changes, count along the chain named.
Columns and labels:
Test in all cases: immunoblot of HEK293 lysates over-expressing FLAG-tagged ZnT homologs
[1] = biological target: T1, human ZnT10 with C-terminal FLAG tag (human, UniProt Q6XR72 1-485, limits assumed)
T1 construct: Commercial HEK293 lysate (Origene), SDS-denatured on immunoblots; not shown: C-terminal FLAG octapeptide
T1 sequence (looked up): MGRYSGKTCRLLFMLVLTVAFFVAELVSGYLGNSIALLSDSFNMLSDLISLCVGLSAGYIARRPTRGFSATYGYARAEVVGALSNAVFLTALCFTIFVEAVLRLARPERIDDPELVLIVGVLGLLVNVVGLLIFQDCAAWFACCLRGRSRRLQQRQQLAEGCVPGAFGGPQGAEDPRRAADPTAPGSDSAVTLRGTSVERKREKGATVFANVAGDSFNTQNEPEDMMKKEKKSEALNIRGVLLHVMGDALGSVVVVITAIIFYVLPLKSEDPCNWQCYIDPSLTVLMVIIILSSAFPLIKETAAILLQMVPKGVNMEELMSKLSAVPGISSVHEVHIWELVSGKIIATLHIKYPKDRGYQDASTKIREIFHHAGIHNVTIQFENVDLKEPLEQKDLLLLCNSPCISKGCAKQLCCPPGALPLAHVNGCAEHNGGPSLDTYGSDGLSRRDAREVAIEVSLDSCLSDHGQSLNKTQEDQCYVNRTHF
From the text: (§1) FIG. 7A-7D. mAb binding specificities (FIG. 7A) mAb binding to ZnT8-His immobilized to Ni-NTA plate. Bound mAb20 (red) or mAb39 (magenta) was detected by an HRP-conjugated secondary antibody. Solid lines are least-squares fits of binding datapoints to a one-component binding process. Error bars are standard errors (n=8). (FIG. 7B) SDS-denatured mouse ZnT8-His (labeled as M) and human ZnT8-His (labeled as H) on immunoblots were detected by mAb20 or mAb39 as indicated. […] (FIG. 7C) Detection of endogenous human ZnT8 in EndoC-βH cells by mAb20 or […] immunoblotting. An equal amount of EndoC-βH lysate (5 μg total protein) was loaded to each lane. (FIG. 7D) Immunoblotting of HEK lysates with or with over-expression of a ZnT homolog as indicated. An approximately equal amount of total lysate protein (5 μg) was located to each lane, probed by either mAb20, mAb39, or anti-FALG antibody as indicated. FIG. 8. HTRF response to human ZnT8, mouse ZnT8 and human ZnT3.
(§2) Immunoblotting. SDS-solubilized cell lysate of EndoC-β cells or HEK293 cells over-expressing ZnT8 was subjected to SDS-PAGE and probed with a 1:3000 mAb20 or mAb39, followed by 1:3000 anti-mouse HRP-conjugated secondary antibody (GE Healthcare cat. #NA931V). A duplicated gel was Coomassie-stained to show an equal protein loading for each lane ([…]). To compare the mAb20 or mAb39 reactivities to different ZnT homolog, we used commercial HEK293 lysates with lentivirus-mediated over-expression of ZnT1, ZnT2, ZnT3, ZnT4, ZnT7, ZnT8, ZnT10, each is tagged by a Flag tag at the C-terminus (Origene, catalog nos. LY500001, LC412033, LC423751, LC401170, LY415673, LC428544, LC406320, and LC412886). Approximately equal amounts of total protein (5 μg) was loaded to each lane, and then probed with mAb20, mAb39, or anti-FLAG antibody (Origene, catalog no. TA50011-100) as above. The expression levels of ZnT homologs varied with ZnT1 most abundantly expressed.

[2] = biological target: T2, human ZnT1 with C-terminal FLAG tag (human, UniProt Q9Y6M5 1-507)
T2 construct: Commercial HEK293 lysate (Origene), SDS-denatured on immunoblots; not shown: C-terminal FLAG octapeptide
T2 sequence (looked up): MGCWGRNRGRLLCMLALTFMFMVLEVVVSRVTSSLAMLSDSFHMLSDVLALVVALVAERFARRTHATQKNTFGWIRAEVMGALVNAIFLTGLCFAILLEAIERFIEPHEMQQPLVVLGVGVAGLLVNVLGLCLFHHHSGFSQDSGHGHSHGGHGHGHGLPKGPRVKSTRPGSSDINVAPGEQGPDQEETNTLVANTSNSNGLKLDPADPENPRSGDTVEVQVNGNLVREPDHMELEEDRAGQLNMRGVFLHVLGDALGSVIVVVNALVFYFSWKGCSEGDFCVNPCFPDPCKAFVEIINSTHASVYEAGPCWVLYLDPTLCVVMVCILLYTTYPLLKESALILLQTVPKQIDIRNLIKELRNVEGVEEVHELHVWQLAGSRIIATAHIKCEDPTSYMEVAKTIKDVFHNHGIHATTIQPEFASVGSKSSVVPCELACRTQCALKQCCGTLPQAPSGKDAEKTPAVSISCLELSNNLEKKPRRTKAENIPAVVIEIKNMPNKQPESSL
From the text: as §1, §2

[3] = biological target: T3, human ZnT3 with C-terminal FLAG tag (human, UniProt Q99726 1-388)
T3 construct: Commercial HEK293 lysate (Origene), SDS-denatured on immunoblots; not shown: C-terminal FLAG octapeptide
T3 sequence (looked up): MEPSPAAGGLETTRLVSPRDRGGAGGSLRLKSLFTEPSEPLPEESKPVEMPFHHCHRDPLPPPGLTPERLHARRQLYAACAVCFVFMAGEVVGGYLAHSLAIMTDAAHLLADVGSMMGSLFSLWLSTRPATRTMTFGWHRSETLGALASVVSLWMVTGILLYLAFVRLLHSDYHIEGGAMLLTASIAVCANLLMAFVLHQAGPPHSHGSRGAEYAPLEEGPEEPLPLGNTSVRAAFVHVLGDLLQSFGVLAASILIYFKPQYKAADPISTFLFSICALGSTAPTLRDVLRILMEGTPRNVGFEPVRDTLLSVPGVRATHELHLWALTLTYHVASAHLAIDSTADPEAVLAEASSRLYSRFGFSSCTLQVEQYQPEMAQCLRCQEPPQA
From the text: as §1, §2

[4] = biological target: T4, human ZnT4 with C-terminal FLAG tag (human, UniProt O14863 1-429)
T4 construct: Commercial HEK293 lysate (Origene), SDS-denatured on immunoblots; not shown: C-terminal FLAG octapeptide
T4 sequence (looked up): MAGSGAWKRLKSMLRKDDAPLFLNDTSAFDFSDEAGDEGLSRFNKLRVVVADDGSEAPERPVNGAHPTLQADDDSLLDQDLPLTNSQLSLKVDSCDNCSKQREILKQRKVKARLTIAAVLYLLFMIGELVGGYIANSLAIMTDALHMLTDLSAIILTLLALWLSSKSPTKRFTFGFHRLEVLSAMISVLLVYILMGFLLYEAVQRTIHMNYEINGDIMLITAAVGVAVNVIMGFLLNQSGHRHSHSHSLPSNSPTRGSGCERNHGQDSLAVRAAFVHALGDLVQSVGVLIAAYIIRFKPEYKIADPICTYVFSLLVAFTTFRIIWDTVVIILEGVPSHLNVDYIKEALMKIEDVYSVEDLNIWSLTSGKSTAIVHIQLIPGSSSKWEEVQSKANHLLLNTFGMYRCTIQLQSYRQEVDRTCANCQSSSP
From the text: as §1, §2

Measured: binding result

B1: mAb20 (antibody, V domains shown)
VH: QIQLVQSGPELKKPGETVKISCKASGYIFTNYPMHWVKQAPGKGLKWMGWINTYSGVPTHADDFKGRFAFSLETSANSAFLQINNLKNEDTATYFCTRSRITPTGGYAMDYWGQGTSVTVSS
VL: DVVMTQTPLSLPVSLGDQASISCRSSQSLVHSNGNTYLHWYLQKPGQSPNLLISKVSNRFSGVPERFSGSGSGTDFTLKISRVEAEDLGVYFCSQNTHVPWTFGGGTKLEIKR
notes: Mouse hybridoma mAb purified on protein A/G; In some assays it was labelled with Alexa Fluor 488 or terbium cryptate; also called monoclonal antibody mAb20; anti-ZnT8 mAb20
no binding: [1] | [2] | [3] | [4]

B2: mAb39 (antibody, V domains shown)
VH: QVQLQQPGAELVKPGASVKLSCKASGYSFTTYWMHWVKQRPGQGLEWVGDINPRNGRTNYNEKSKSKATLTVDISSSTVYMQVSSLTSEDSAVYYCAIWSGAMDYWGPGTSVTVSS
VL: B1 VL with A19P, R24K, S32N, N50K, S54Y, E65D, N96T, W101P
notes: Mouse hybridoma mAb purified on protein A/G; In some assays it was labelled with Alexa Fluor 555 or d2; also called monoclonal antibody mAb39; anti-ZnT8 mAb39
no binding: [1] | [2] | [3] | [4]
